Three molecules from article PMC9497064, “Model of the SARS-CoV-2 Virus for Development of a DNA-Modified, Surface-Enhanced Raman Spectroscopy Sensor with a Novel Hybrid Plasmonic Platform in Sandwich Mode” can be followed below.

The target of data set [1] is T1, RBD on Ag nanoparticles (RBD NP) (SARS-CoV-2 (Wuhan strain), UniProt P0DTC2 319-541). As to the kind of experiment: SERS sandwich; BLI ([…]; BLI ([…], room temperature; […].
Data set [2] concerns the target T1, RBD on Ag nanoparticles (RBD NP). As to the kind of experiment: BLI; BLI ([…]; BLI ([…], room temperature; […]. Background: Biolayer interferometry detects binding as a change in optical thickness at a sensor tip.

B1: Found-SH (ssDNA)
DNA: CACCGCTTTTGCCTTTTGGGGACGGATATAGGGAAACACGATAGAATCCGAACAGCACC
On to B1, for which, in data set [1], the binding result is reported as “binds”.

B2: RBD-1C (biotinylated) (ssDNA)
DNA: CAGCACCGACCTTGTGCTTTGGGAGTGCTGGTCCAAGGGCGTTAATGGACA
On to B2, for which the binding result in data set [2] is given as “binds”.

B3: RBD-1C-Cy3 (ssDNA)
DNA: CAGCACCGACCTTGTGCTTTGGGAGTGCTGGTCCAAGGGCGTTAATGGACA
Turning to B3, in data set [1], the binding result was “binds”.
